Test results reported in patent publication US9782454B2 (LONGEVITY BIOTECH, INC., priority 2010, dated 2017).
Non-standard residues stand in square brackets, D forms with d. No end group written: not given here. ACPC = cyclic beta amino acid; APC = cyclic beta amino acid

Key:
[1] = target: VIPR2 (VPAC2) receptor, cAMP Hunter cell line expressing VIPR2 (UniProt P41587); assay: cell-based or functional assay
[2] = target: T1, Glucagon receptor (Rattus norvegicus, UniProt P30082); conditions: cited from earlier work
T1 construct: Enhances glucose-stimulated; from tissue; host or cells: rat liver membranes (value quoted from the literature)

[3] = target: T2, CRF2α (Homo sapiens, UniProt Q13324); conditions: cited from earlier work
T2 sequence (Q13324 1-411): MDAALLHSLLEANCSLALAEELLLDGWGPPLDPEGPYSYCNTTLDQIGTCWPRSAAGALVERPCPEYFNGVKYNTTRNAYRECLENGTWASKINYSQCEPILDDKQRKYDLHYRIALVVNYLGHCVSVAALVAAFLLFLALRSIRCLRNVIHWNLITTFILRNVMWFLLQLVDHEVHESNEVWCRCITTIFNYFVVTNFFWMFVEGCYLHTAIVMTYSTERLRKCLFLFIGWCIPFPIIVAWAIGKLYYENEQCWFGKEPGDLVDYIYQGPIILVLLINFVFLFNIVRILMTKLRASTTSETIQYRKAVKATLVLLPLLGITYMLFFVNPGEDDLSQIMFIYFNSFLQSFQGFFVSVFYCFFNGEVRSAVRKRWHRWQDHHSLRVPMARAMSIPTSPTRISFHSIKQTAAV

[4] = target: T3, CRF2β (Homo sapiens, UniProt Q13324); conditions: cited from earlier work
T3 sequence (Q13324 1-438 isoform Q13324-2): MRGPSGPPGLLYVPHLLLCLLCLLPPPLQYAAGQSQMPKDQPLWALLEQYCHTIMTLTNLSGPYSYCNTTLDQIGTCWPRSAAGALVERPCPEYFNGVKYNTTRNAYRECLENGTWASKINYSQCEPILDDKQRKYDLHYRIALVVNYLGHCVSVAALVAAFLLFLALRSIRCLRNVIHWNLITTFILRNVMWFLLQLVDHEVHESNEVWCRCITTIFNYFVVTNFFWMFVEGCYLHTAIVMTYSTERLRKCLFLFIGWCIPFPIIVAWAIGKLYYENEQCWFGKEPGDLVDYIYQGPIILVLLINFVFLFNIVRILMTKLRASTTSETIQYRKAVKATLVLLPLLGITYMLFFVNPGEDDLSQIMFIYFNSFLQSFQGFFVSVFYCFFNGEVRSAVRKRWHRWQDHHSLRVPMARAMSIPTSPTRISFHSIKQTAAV

[5] = target: AKT (Homo sapiens, UniProt P31749); conditions: read-out: Ki, competitive inhibition of histone H2B phosphorylation by AKT; cited from earlier work
[6] = target: T4, VIPR1 (Homo sapiens, UniProt P32241); assay: cAMP Hunter cell line, HitHunter cAMP XS+ assay, agonist mode; format: cell-based; conditions: for % Activity / Mean RLU: VIPR1 cells, cAMP
T4 sequence (P32241 31-457): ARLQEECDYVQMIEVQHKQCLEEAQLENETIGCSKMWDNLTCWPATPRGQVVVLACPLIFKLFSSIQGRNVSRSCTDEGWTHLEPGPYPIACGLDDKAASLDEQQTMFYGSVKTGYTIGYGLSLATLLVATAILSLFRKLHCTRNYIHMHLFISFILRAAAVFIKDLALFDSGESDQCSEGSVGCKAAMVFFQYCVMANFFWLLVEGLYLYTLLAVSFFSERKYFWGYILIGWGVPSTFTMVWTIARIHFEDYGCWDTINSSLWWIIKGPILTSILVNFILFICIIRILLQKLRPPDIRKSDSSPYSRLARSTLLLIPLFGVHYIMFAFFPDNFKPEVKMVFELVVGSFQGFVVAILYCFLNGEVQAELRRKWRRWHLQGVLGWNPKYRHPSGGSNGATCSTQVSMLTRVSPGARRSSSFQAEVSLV
Experimental: (§1) Once it was established that the cells were healthy and growing normally, cells were passaged from flasks using cell dissociation reagent buffer and seeded into white walled clear bottom 384-well microplates for compound profiling. For profiling, cells were seeded at a density of 10,000 cells per well in a total volume of 20 μL and were allowed to adhere and recover overnight prior to compound addition. cAMP modulation was determined using the DiscoveRx HitHunter cAMP XS+ assay.
(§2) For profiling compound in agonist mode, the cells were incubated in the presence of compound at 37° C. for 30 minutes. […] After appropriate compound incubation, assay signal was generated through incubation with DiscoverX lysis cocktail according to the manufacturers standard protocol. Dose curves were plotted using GraphPad Prism or Activity Base. Percentage activity is calculated using the following formula: % Activity=100%×(mean RLU of test sample−mean RLU of vehicle control)/(mean RLU of MAX control−mean RLU of vehicle control).

[7] = target: T5, VIPR2 (Homo sapiens, UniProt P41587); assay: as above; format: cell-based
T5 sequence (P41587 24-438): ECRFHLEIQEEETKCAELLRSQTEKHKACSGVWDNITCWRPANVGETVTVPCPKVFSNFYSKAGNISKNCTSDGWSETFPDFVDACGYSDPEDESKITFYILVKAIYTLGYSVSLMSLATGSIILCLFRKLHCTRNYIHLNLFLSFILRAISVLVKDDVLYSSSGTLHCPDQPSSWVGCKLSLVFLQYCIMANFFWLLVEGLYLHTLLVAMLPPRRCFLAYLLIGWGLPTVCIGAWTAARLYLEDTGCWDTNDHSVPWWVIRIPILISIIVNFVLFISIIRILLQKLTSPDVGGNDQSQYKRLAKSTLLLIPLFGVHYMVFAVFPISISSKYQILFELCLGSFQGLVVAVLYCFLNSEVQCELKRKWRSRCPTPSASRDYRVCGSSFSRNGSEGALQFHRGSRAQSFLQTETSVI
Experimental: as §1, §2

[8] = target: T6, VIPR1 (VPAC1) receptor, cAMP Hunter cell line expressing VIPR1 (UniProt P32241 31-457, limits assumed); assay: cell-based or functional assay
T6 sequence (looked up): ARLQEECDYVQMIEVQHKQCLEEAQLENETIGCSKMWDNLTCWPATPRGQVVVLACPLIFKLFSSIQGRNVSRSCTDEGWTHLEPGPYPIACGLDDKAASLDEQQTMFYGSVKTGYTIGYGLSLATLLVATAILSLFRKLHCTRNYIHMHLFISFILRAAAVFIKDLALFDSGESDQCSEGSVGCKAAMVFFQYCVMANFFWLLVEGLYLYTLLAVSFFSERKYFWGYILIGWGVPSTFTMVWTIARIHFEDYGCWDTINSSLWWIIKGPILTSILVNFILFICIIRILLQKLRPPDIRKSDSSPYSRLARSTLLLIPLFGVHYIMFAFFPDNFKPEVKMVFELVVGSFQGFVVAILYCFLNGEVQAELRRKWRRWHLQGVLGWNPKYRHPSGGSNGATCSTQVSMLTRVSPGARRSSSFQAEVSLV

T1 sequence (P30082 27-485): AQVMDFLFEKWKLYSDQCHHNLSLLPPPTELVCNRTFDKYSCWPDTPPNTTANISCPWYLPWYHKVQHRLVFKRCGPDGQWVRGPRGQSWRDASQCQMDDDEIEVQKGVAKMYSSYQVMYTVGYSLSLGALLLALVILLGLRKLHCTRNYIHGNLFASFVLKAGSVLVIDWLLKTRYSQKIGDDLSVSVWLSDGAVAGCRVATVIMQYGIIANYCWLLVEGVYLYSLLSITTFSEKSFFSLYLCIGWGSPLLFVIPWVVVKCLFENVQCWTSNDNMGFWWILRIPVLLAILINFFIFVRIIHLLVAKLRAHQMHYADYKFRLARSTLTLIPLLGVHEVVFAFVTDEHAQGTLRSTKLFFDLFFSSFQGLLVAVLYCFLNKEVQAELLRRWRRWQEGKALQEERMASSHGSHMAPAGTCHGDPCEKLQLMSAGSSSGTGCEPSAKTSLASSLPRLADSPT
Sequence of AKT (P31749 whole entry): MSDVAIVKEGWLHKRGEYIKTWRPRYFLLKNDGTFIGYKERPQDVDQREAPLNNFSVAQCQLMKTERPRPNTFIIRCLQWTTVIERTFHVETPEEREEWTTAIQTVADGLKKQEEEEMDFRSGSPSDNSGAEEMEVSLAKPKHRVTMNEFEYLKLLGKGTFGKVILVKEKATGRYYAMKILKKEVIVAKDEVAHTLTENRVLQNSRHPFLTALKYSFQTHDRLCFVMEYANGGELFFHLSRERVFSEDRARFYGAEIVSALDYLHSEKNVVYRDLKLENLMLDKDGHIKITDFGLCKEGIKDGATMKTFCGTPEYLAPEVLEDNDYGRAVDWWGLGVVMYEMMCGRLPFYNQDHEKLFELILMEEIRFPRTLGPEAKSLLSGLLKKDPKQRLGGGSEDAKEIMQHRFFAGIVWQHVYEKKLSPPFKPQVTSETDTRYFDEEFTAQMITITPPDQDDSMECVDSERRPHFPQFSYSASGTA

Molecule: VIP analogue Compound 8 (…XRLZKQLXVKZYLNXILN) (peptide)
- % Activity, cAMP agonist mode, at 1.00E-07 M (block headed Compound ID 9) [1]: 0.4%
- % Activity, cAMP agonist mode, at 1.00E-08 M (block headed Compound ID 9) [1]: 1.2%
- % Activity, cAMP agonist mode, at 1.00E-09 M (block headed Compound ID 9) [1]: 0.4%
- % Activity, cAMP agonist mode, at 1.00E-10 M (block headed Compound ID 9) [1]: -1.1%
- % Activity, cAMP agonist mode, at 1.00E-11 M (block headed Compound ID 9) [1]: 0.9%
- % Activity, cAMP agonist mode, at 1.00E-12 M (block headed Compound ID 9) [1]: 0.4%
- % Activity, cAMP agonist mode, at 5.00E-07 M (block headed Compound ID 9) [1]: 1.9%
- % Activity, cAMP agonist mode, at 5.00E-08 M (block headed Compound ID 9) [1]: 0.9%
- % Activity, cAMP agonist mode, at 5.00E-09 M (block headed Compound ID 9) [1]: 0.1%
- % Activity, cAMP agonist mode, at 5.00E-10 M (block headed Compound ID 9) [1]: 1.5%
- % Inhibition, cAMP antagonist mode against EC80 VIP, at 1.00E-07 M [1]: 6.5%
- % Inhibition, cAMP antagonist mode against EC80 VIP, at 1.00E-08 M [1]: 9.4%
- % Inhibition, cAMP antagonist mode against EC80 VIP, at 1.00E-09 M [1]: 6.5%
- % Inhibition, cAMP antagonist mode against EC80 VIP, at 1.00E-10 M [1]: 4.2%
- % Inhibition, cAMP antagonist mode against EC80 VIP, at 1.00E-11 M [1]: 8.7%
- % Inhibition, cAMP antagonist mode against EC80 VIP, at 1.00E-12 M [1]: 3.7%
- % Inhibition, cAMP antagonist mode against EC80 VIP, at 5.00E-07 M [1]: 8.4%
- % Inhibition, cAMP antagonist mode against EC80 VIP, at 5.00E-08 M [1]: 6.2%
- % Inhibition, cAMP antagonist mode against EC80 VIP, at 5.00E-09 M [1]: 10.9%
- % Inhibition, cAMP antagonist mode against EC80 VIP, at 5.00E-10 M [1]: 12.7%
- Mean RLU, cAMP agonist mode, at 1.00E-07 M (block headed Compound ID 9) [1]: 8920 RLU
- Mean RLU, cAMP agonist mode, at 1.00E-08 M (block headed Compound ID 9) [1]: 9560 RLU
- Mean RLU, cAMP agonist mode, at 1.00E-09 M (block headed Compound ID 9) [1]: 8560 RLU
- Mean RLU, cAMP agonist mode, at 1.00E-10 M (block headed Compound ID 9) [1]: 7560 RLU
- Mean RLU, cAMP agonist mode, at 1.00E-11 M (block headed Compound ID 9) [1]: 3280 RLU
- Mean RLU, cAMP agonist mode, at 1.00E-12 M (block headed Compound ID 9) [1]: 9300 RLU
- Mean RLU, cAMP agonist mode, at 5.00E-07 M (block headed Compound ID 9) [1]: 10200 RLU
- Mean RLU, cAMP agonist mode, at 5.00E-08 M (block headed Compound ID 9) [1]: 9200 RLU
- Mean RLU, cAMP agonist mode, at 5.00E-09 M (block headed Compound ID 9) [1]: 8560 RLU
- Mean RLU, cAMP agonist mode, at 5.00E-10 M (block headed Compound ID 9) [1]: 3920 RLU
- Mean RLU, cAMP antagonist mode against EC80 VIP, at 1.00E-07 M [1]: 79600 RLU
- Mean RLU, cAMP antagonist mode against EC80 VIP, at 1.00E-08 M [1]: 77500 RLU
- Mean RLU, cAMP antagonist mode against EC80 VIP, at 1.00E-09 M [1]: 79500 RLU
- Mean RLU, cAMP antagonist mode against EC80 VIP, at 1.00E-10 M [1]: 81300 RLU
- Mean RLU, cAMP antagonist mode against EC80 VIP, at 1.00E-11 M [1]: 78000 RLU
- Mean RLU, cAMP antagonist mode against EC80 VIP, at 1.00E-12 M [1]: 81700 RLU
- Mean RLU, cAMP antagonist mode against EC80 VIP, at 5.00E-07 M [1]: 64200 RLU
- Mean RLU, cAMP antagonist mode against EC80 VIP, at 5.00E-08 M [1]: 79500 RLU
- Mean RLU, cAMP antagonist mode against EC80 VIP, at 5.00E-09 M [1]: 76300 RLU
- Mean RLU, cAMP antagonist mode against EC80 VIP, at 5.00E-10 M [1]: 74900 RLU

Molecule: des-His1-{Glu9}-Glucagon (1-29) amide
- agonist activity at the glucagon receptor [2]: activation in rat liver membranes); displays no agonist activity. Enhances glucose-stimulated
- pA2 for inhibition of glucagon-induced adenylyl cyclase activation in rat liver membranes [2]: (Glucagon receptor antagonist (pA2 = 7.2 for inhibition of glucagon-induced adenylyl cyclase

Molecule: Astressin
- Ki [3]: 1.5 nM
- Ki [4]: 1 nM

Molecule: 5-TMR-ARKRERTYSFGHHA ({5‑TMR}-ARKRERTYSFGHHA)
- Ki [5]: 12000 nM

Molecule: CC[C@H](C)[C@H](NC(=O)[C@H]1CCC[C@@H]1NC(=O)[C@H](CC(N)=O)NC(=O)[C@H](CC(C)C)NC(=O)[C@H](Cc1ccc(O)cc1)NC(=O)[C@H]1CNC[C@@H]1NC(=O)[C@H](CCCCN)NC(=O)[C@@H](NC(=O)[C@H]1CCC[C@@H]1NC(=O)[C@H](CC(C)C)NC(=O)[C@H](CCC(N)=O)NC(=O)[C@H](CCCCN)NC(=O)[C@H]1CNC[C@@H]1NC(=O)[C@H](CC(C)C)NC(=O)[C@H](CCCNC(=N)N)NC(=O)[C@H]1CCC[C@@H]1NC(=O)[C@H](Cc1ccc(O)cc1)NC(=O)[C@H](CC(N)=O)NC(=O)[C@H](CC(=O)O)NC(=O)[C@@H](NC(=O)[C@H](Cc1ccccc1)NC(=O)[C@@H](NC(=O)[C@H](C)NC(=O)[C@H](CC(=O)O)NC(=O)[C@H](CO)NC(=O)[C@@H](N)Cc1c[nH]cn1)C(C)C)[C@@H](C)O)C(C)C)C(=O)N[C@@H](CC(C)C)C(=O)N[C@@H](CC(N)=O)C(N)=O [Compound 8, HSDAVFTDNYXRLZKQLXVKZYLNXILN]
- % Activity ([6]; 1.03E−07 M compound): 91.7%
- % Activity ([6]; 1.03E−08 M compound): 1.5%
- Mean RLU ([6]; 1.03E−08 M compound): 13700.0 RLU
- % Activity ([6]; 1.03E−09 M compound): −1.4%
- Mean RLU ([6]; 1.03E−09 M compound): 13500.0 RLU
- % Activity ([6]; 1.03E−10 M compound): −2.9%
- Mean RLU ([6]; 1.03E−10 M compound): 9960.0 RLU
- % Activity ([6]; 1.03E−11 M compound): −1.5%
- Mean RLU ([6]; 1.03E−11 M compound): 10500.0 RLU
- % Activity ([6]; 1.03E−12 M compound): −1.7%
- Mean RLU ([6]; 1.03E−12 M compound): 10340.0 RLU
- % Activity ([6]; 5.03E−07 M compound): 99.5%
- % Activity ([6]; 5.03E−08 M compound): 83.9%
- % Activity ([6]; 5.03E−09 M compound): 1.2%
- Mean RLU ([6]; 5.03E−09 M compound): 13200.0 RLU
- % Activity ([6]; 5.03E−10 M compound): −2.2%
- Mean RLU ([6]; 5.03E−10 M compound): 9520.0 RLU
- activation of VIPR1 ([6]; FIG. 3): fully activate VIPR1
- interaction with VIPR2 [7]: does not interact substantially with VIPR2
- activation of VIPR2 ([7]; FIG. 3): not activate VIPR2

B1: VIP analogue Compound 8 (HSDAVFTDNYXRLZKQLXVKZYLNXILN) (peptide)
peptide: HSDAVFTDNY[ACPC]RL[APC]KQL[ACPC]VK[APC]YLN[ACPC]ILN
modifications: ends and bridges not checked
- EC50, cAMP agonist mode [8]: 28 nM
